The record followed here is paper PMC10349855, “Structural basis for specific RNA recognition by the alternative splicing factor RBM5”.

One data set addresses T1, RBM5 RRM2 (human, UniProt P52756 231-315).
T1 sequence: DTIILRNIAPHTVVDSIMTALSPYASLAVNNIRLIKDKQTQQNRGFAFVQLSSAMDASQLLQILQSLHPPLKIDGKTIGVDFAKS
Description: ITC; average of two; ITC: 20 mM MES pH 6.5, 100 mM NaCl, 2 mM BME, 25 C; NMR: 20 mM MES pH 6.5, 100 mM (single RRMs) or 400 mM (multidomain) NaCl, 1 mM DTT, 298 K. The settings on record: protein: recombinant; tags: His-Trx tag, TEV cleaved. On the technique in general: In ITC the heat of successive injections is recorded.

In data set [1] the target is T2, RBM5 RRM1-ZnF1 F202A (human, UniProt P52756 94-210, F202A).
T2 sequence: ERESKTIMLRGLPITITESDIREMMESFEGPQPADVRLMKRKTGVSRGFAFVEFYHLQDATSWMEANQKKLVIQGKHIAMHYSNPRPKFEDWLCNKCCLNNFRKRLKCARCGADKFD
Put plainly: ITC; ITC: 20 mM MES pH 6.5, 100 mM NaCl, 2 mM BME, 25 C; NMR: 20 mM MES pH 6.5, 100 mM (single RRMs) or 400 mM (multidomain) NaCl, 1 mM DTT, 298 K. The settings on record: protein: recombinant.

The target of data set [2] is T3, RBM5 RRM1-ZnF1 F142A/F144A (human, UniProt P52756 94-210, F142A;F144A).
T3 sequence: T2 sequence with F49A, F51A, A109F
Described as above. The settings on record: protein: recombinant.

The target of data set [3] is T4, RBM5 RRM1-ZnF1 R198E (human, UniProt P52756 94-210, R198E).
T4 sequence: T2 sequence with R105E, A109F
The description is as above. The settings on record: protein: recombinant.

For data set [4], the target named is T5, RBM5 RRM1-ZnF1S (human, UniProt P52756 94-210, C191G).
T5 sequence: T2 sequence with C98G, A109F
The data set is described as above. The settings on record: protein: recombinant.

Another data set concerns the target T6, RBM5 RRM1 (human, UniProt P52756 94-184).
T6 sequence: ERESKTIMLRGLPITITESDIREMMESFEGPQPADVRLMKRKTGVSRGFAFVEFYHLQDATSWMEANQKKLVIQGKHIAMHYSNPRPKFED
Put plainly: ITC; 20 mM MES pH 6.5, 100 mM NaCl, 2 mM 2-mercaptoethanol, 25 C; protein 10-30 uM in the cell; one-site fit. The settings on record: tags: His-thioredoxin, TEV-cleaved (scar left out).

The target of data set [5] is T7, RBM5 RRM1-ZnF1 wt (Homo sapiens, UniProt P52756 94-210, I107T).
T7 sequence: T2 sequence with I14T, A109F
Description: ITC; Zn; 20 mM MES pH 6.5, 100 mM NaCl, 2 mM 2-mercaptoethanol, 25 C; protein 10-30 uM in the cell; one-site fit. The settings on record: tags: none; N-terminal Met-Gly from the NcoI site (left out).

Data set [6] has as its target T8, RBM5 RRM1-ZnF1 F202A (Homo sapiens, UniProt P52756 94-210, I107T;F202A).
T8 sequence: T2 sequence with I14T
The data set is described as above. The settings on record: tags: none; N-terminal Met-Gly from the NcoI site (left out).

Data set [7] has as its target T9, RBM5 RRM1-ZnF1 R198E (Homo sapiens, UniProt P52756 94-210, I107T;R198E).
T9 sequence: T2 sequence with I14T, R105E, A109F
Described as above. The settings on record: tags: none; N-terminal Met-Gly from the NcoI site (left out).

In the next data set the target is T10, RBM5 RRM1-ZnF1S-RRM2 (human, UniProt P52756 94-315, C191G).
T10 sequence: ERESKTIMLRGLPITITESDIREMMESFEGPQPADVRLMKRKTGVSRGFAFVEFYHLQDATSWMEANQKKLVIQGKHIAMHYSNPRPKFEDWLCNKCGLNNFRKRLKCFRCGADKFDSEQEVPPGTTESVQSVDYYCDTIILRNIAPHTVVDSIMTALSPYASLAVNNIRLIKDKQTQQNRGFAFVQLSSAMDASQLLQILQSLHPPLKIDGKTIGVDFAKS
Described as above. The settings on record: tags: His-thioredoxin, TEV-cleaved (scar left out).

In data set [8] the target is T11, RBM5 RRM1-ZnF1S (Homo sapiens, UniProt P52756 94-210, I107T;C191G).
T11 sequence: T2 sequence with I14T, C98G, A109F
Described as above. The settings on record: tags: none; N-terminal Met-Gly from the NcoI site (left out).

Another data set deals with T12, RBM5 RRM1-ZnF1 F142/144A (Homo sapiens, UniProt P52756 94-210, I107T;F142A;F144A).
T12 sequence: T2 sequence with I14T, F49A, F51A, A109F
Described as above. The settings on record: tags: none; N-terminal Met-Gly from the NcoI site (left out).

The target in data set [9] is T13, RBM5 RRM1-ZnF1 wt (human, UniProt P52756 94-210).
T13 sequence: T2 sequence with A109F
Put plainly: ITC; average of two; text 153 nM; ITC: 20 mM MES pH 6.5, 100 mM NaCl, 2 mM BME, 25 C; NMR: 20 mM MES pH 6.5, 100 mM (single RRMs) or 400 mM (multidomain) NaCl, 1 mM DTT, 298 K. The settings on record: protein: recombinant.

A further data set deals with T14, RBM5 RRM1 F142A/F144A (human, UniProt P52756 94-184, F142A;F144A).
T14 sequence: T6 sequence with F49A, F51A
Put plainly: NMR; 20 mM MES pH 6.5, 100 mM NaCl, 1 mM DTT, 25 C; protein 0.1-0.2 mM. The settings on record: tags: His-thioredoxin, TEV-cleaved (scar left out).

The target of data set [10] is T13, RBM5 RRM1-ZnF1 wt. Description: ITC; ITC: 20 mM MES pH 6.5, 100 mM NaCl, 2 mM BME, 25 C; NMR: 20 mM MES pH 6.5, 100 mM (single RRMs) or 400 mM (multidomain) NaCl, 1 mM DTT, 298 K. The settings on record: protein: recombinant.
Data set [11] deals with T5, RBM5 RRM1-ZnF1S. Put plainly: ITC; N about 0.6; Discussion prints 6 uM but also 2.4-fold weaker than 263 nM; ITC: 20 mM MES pH 6.5, 100 mM NaCl, 2 mM BME, 25 C; NMR: 20 mM MES pH 6.5, 100 mM (single RRMs) or 400 mM (multidomain) NaCl, 1 mM DTT, 298 K. The settings on record: protein: recombinant.
Data set [12] addresses T5, RBM5 RRM1-ZnF1S. Put plainly: X-ray crystallography; Zn2+; 3.5 A; ITC: 20 mM MES pH 6.5, 100 mM NaCl, 2 mM BME, 25 C; NMR: 20 mM MES pH 6.5, 100 mM (single RRMs) or 400 mM (multidomain) NaCl, 1 mM DTT, 298 K. The settings on record: protein: recombinant.

Where a chain is given by its changes, count along the chain named.

B1: GGCU_12 (ssRNA)
RNA: UGGCUCUUCUCU
Broadly, the Kd is the equilibrium constant for the complex coming apart. As to B1, the Kd with RBM5 RRM2 came out at 173000 nM; with RBM5 RRM1-ZnF1 F202A [1], 379 nM; in data set [2], 448 nM; in the data set with RBM5 RRM1-ZnF1 R198E [3], 2700 nM; in the data set with RBM5 RRM1-ZnF1S [4], 263 ± 27 nM; with RBM5 RRM1, 1880 ± 950 nM. The Kd in the data set with RBM5 RRM1-ZnF1 wt [5] came to 153 ± 69 nM; with RBM5 RRM1-ZnF1 F202A [6] it was 379 ± 41 nM; in the data set with RBM5 RRM1-ZnF1 R198E [7] it was 2660 ± 380 nM; in the data set with RBM5 RRM1-ZnF1S-RRM2, 133 ± 12 nM; with RBM5 RRM1-ZnF1S [8], 263 ± 27 nM; in the data set with RBM5 RRM1-ZnF1 F142/144A it was 448 ± 36 nM. Besides, the Kd with RBM5 RRM1-ZnF1 wt [9] is 153 nM.

B2: CU_9 (ssRNA)
RNA: UCUCUUCUC
B2: in the data set with RBM5 RRM1 F142A/F144A, the binding result is “no binding”. In addition, the Kd with RBM5 RRM1-ZnF1 wt [10] is 6000 nM; with RBM5 RRM1, 19700 ± 6500 nM; with RBM5 RRM1-ZnF1 wt [5], 5560 ± 2830 nM.

B3: eGGCU_12 (ssRNA)
RNA: ACUUGGCUCUUCUCU
B3: the Kd in the data set with RBM5 RRM1-ZnF1S [8] and in the data set with RBM5 RRM1-ZnF1S [11] was 641 ± 125 nM in each case.

B4: GGCU_10 (ssRNA)
RNA: UGGCUCUUCU
Take B4: in the data set with RBM5 RRM1-ZnF1S [12], the binding result is reported as “binds”.
